In PMC10663500, “High-throughput analysis system of interaction kinetics for data-driven antibody design” (Scientific Reports, 2023) one finds Kd, koff and kon data, which are given here for nine molecules.

Changes are numbered by the printed parent chain.

B1: toripalimab Fab H.G56A (Fab, V domains shown)
VH: QGQLVQSGAEVKKPGASVKVSCKASGYTFTDYEMHWVRQAPIHGLEWIGVIESETAGTAYNQKFKGRVTITADKSTSTAYMELSSLRSEDTAVYYCAREGITTVATTYYWYFDVWGQGTTVTVSS
VL: DVVMTQSPLSLPVTLGQPASISCRSSQSIVHSNGNTYLEWYLQKPGQSPQLLIYKVSNRFSGVPDRFSGSGSGTDFTLKISRVEAEDVGVYYCFQGSHVPLTFGQGTKLEIK
notes: heavy chain of Sm3 with this change; numbers count from the chain's first residue; as the light chain of Sm3; source: Brevibacillus, culture supernatant (ammonium sulfate precipitate); not shown: 6xHis, C-terminal, kept; 6xHN, C-terminal, kept
B2: toripalimab Fab H.G57Y (Fab, V domains shown)
VH: B1 VH with A56G, G57Y
VL: B1 VL
notes: as for B1
B3: toripalimab Fab H.A59Y (Fab, V domains shown)
VH: B1 VH with A56G, A59Y
VL: B1 VL
notes: as for B1
B4: toripalimab Fab H.G56Y (Fab, V domains shown)
VH: B1 VH with A56Y
VL: B1 VL
notes: as for B1
B5: toripalimab Fab H.G57A (Fab, V domains shown)
VH: B1 VH with A56G, G57A
VL: B1 VL
notes: as for B1
B6: toripalimab Fab H.T58A (Fab, V domains shown)
VH: B1 VH with A56G, T58A
VL: B1 VL
notes: as for B1
B7: toripalimab Fab H.T58Y (Fab, V domains shown)
VH: B1 VH with A56G, T58Y
VL: B1 VL
notes: as for B1
B8: toripalimab Fab H.Y60A (Fab, V domains shown)
VH: B1 VH with A56G, Y60A
VL: B1 VL
notes: as for B1
B9: toripalimab Fab H.D31Y (Fab, V domains shown)
VH: B1 VH with D31Y, A56G
VL: B1 VL
notes: as for B1

In the first test the target is T1, human programmed cell death protein 1 (hPD-1) C93S (aa 24-167) (Homo sapiens, UniProt Q15116, C93S).
T1 construct: made as a fusion with a TEV site and human Fc; the Fc was cut off with TEV protease; source: Expi293F, purified (Protein A, TEV cleavage of Fc, SEC; monomer fractions); not shown: Fc (human), C-terminal, cleaved
T1 sequence (Q15116 24-167 C93S): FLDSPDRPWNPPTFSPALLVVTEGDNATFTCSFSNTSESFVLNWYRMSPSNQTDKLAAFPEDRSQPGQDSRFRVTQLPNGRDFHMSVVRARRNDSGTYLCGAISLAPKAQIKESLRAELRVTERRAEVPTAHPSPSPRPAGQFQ
Kind of test: SPR; Carterra LSA; Fab from the ammonium sulfate precipitate of the culture supernatant immobilised on a NiHC200M chip; hPD-1 (1-1024 nM) or mPD-1-Fc (4-1024 nM) as analyte, fourfold dilution series, no regeneration; HBS-EP pH 7.4, 25 °C; medians over the spots of a construct, KD = koff/kon. The conditions noted are these: one partner purified. Put shortly: (§1)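 Fabs from Brevibacillus culture supernatants were ammonium sulfate-precipitated, redissolved in HBS-EP and captured in duplicate on a NiHC200M chip (Carterra LSA, 25 °C). Human PD-1 (1–1024 nM) or mouse PD-1-Fc (4–1024 nM) flowed as fourfold series without regeneration, with 10 min association and 5 min dissociation; unconfirmed binders were set to kon 10^3 […], koff 10^−2 s^−1. Rates came from kdka model fits (slow- or fast-dissociation settings, best fit); KD is koff/kon from per-construct medians.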
(In general: Surface plasmon resonance follows binding to a sensor surface in real time, without labels.)
In the case of B1, the Kd was under 0.00146 µM, the koff is under 1e-05 s⁻¹ and the on-rate (kon) was 6870 M⁻¹ s⁻¹.

Turning to B2, the dissociation constant (Kd) came to 0.00335 µM, the off-rate constant (koff) turned out to be 0.000138 s⁻¹ and the on-rate constant (kon) came to 41100 M⁻¹ s⁻¹.

Turning to B3, the Kd was determined as 0.00218 µM, the koff is 4.81e-05 s⁻¹ and the kon is 22100 M⁻¹ s⁻¹.

Turning to B4, the dissociation constant Kd was under 0.0017 µM, the off-rate constant (koff) is under 1e-05 s⁻¹ and the kon came to 5890 M⁻¹ s⁻¹.

The molecule B5 came in with a Kd of 0.000598 µM, an off-rate constant (koff) of 1.47e-05 s⁻¹ and a kon of 24500 M⁻¹ s⁻¹.

For B6, the Kd was under 0.000662 µM, the koff was under 1e-05 s⁻¹ and the on-rate (kon) came to 15100 M⁻¹ s⁻¹.

B7 gave a Kd of 0.00126 µM, a koff of 1.54e-05 s⁻¹ and a kon of 12300 M⁻¹ s⁻¹.

B8 had a dissociation constant Kd of under 0.000309 µM, a koff of under 1e-05 s⁻¹ and a kon of 32300 M⁻¹ s⁻¹.

With B9, the Kd was under 0.000349 µM, the off-rate (koff) was under 1e-05 s⁻¹ and the kon came out at 28600 M⁻¹ s⁻¹.

The target in a further test is T2, mouse programmed cell death protein 1 Fc fusion protein (mPD-1-Fc), mPD-1 C60S (aa 25-167) (Mus musculus, UniProt Q02242, stabilised).
T2 construct: not cleaved; source: Expi293F, purified (Protein A, SEC; dimeric fraction); not shown: Fc (human), C-terminal, kept
Described as above. The conditions noted are these: one partner purified. In a few lines:
as §1
On to B1, for which the Kd is 0.154 µM, the off-rate constant (koff) worked out at 0.00466 s⁻¹ and the kon worked out at 30200 M⁻¹ s⁻¹.

Molecule B2 returned a Kd of 0.0903 µM, an off-rate constant (koff) of 0.00664 s⁻¹ and a kon of 73500 M⁻¹ s⁻¹.

B3 showed a dissociation constant Kd of 0.345 µM, a dissociation rate constant (koff) of 0.0135 s⁻¹ and an on-rate constant (kon) of 39200 M⁻¹ s⁻¹.

The molecule B4 yielded a dissociation constant Kd of 0.502 µM, an off-rate constant (koff) of 0.0174 s⁻¹ and an on-rate (kon) of 34700 M⁻¹ s⁻¹.

On to B5, for which the dissociation constant Kd worked out at 0.125 µM, the koff is 0.00625 s⁻¹ and the kon came out at 50100 M⁻¹ s⁻¹.

As for B6, the Kd came out at 0.169 µM, the koff amounted to 0.0066 s⁻¹ and the kon came out at 39000 M⁻¹ s⁻¹.

Molecule B7 showed an equilibrium dissociation constant (Kd) of 0.215 µM, a koff of 0.0107 s⁻¹ and an association rate constant (kon) of 49600 M⁻¹ s⁻¹.

Consider B8, for which binding was put at a Kd of 0.0882 µM, the koff was 0.00422 s⁻¹ and the on-rate (kon) was 47900 M⁻¹ s⁻¹.

For the molecule B9, binding was put at a Kd of 0.291 µM, the koff was 0.0133 s⁻¹ and the kon came to 45600 M⁻¹ s⁻¹.

In general, Kd refers to a measure of binding affinity in units of concentration. What is called koff is the first-order rate constant of dissociation. For orientation: kon means a measure of how fast the partners come together. A higher kon goes with fast association.
